Columns and labels:
Details in all cases: both partners purified
[1] = molecular target: T1, Full-length human plasma kallikrein, activated form (human, UniProt P03952); experiment: enzyme inhibition (steady state, tight-binding fit); purified Fab fragments on full-length pKal, potency studies like those of Fig. 2A; apparent
T1 construct: also called pKal; active pKal; source: bought: Enzyme Research Laboratories

[2] = molecular target: T2, Full-length human plasma kallikrein, activated form (human, UniProt P03952 20-390; P03952 391-638); experiment: SPR; BIAcore 3000, 25 °C, HBS-P; 2-chain HMWK amine-coupled on CM5 (~2000 RU); varying pKal flowed 5 min at 20 ul/min; equilibrium RU fit to Equation 3
T2 construct: also called pKal; active pKal; source: bought: Enzyme Research Laboratories
T2 sequence (P03952 20-390, chain 1 of 2): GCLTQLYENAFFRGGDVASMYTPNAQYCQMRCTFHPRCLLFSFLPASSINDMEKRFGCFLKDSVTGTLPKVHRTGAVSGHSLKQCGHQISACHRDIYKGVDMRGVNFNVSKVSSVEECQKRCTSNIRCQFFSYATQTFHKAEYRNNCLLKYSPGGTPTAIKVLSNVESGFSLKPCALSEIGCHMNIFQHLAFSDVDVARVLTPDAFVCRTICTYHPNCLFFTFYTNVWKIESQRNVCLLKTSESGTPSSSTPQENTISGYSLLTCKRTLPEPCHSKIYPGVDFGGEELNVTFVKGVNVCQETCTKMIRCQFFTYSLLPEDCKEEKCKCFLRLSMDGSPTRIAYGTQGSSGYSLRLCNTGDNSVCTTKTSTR
T2 sequence (P03952 391-638, chain 2 of 2): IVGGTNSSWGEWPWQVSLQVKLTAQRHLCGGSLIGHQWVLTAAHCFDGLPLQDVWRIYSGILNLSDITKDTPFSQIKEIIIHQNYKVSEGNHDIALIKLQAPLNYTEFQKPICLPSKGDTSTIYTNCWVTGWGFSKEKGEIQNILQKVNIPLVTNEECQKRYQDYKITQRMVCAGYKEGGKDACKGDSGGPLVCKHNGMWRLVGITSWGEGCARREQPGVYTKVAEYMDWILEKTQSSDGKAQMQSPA

[3] = molecular target: T3, pKal complexed with 2-chain HMWK (Homo sapiens, UniProt P03952;P01042); experiment: enzyme inhibition (steady state, tight-binding fit); DX-2930 IgG (up to 10 nM, 1.5-fold dilutions) incubated 1 h at 30 °C with 1 nM pKal, free or preincubated with 600 nM 2-chain HMWK, in 20 mM Tris-HCl pH 7.5, 150 mM NaCl, 1 mM EDTA, 0.1% PEG-8000, 0.1% Triton X-100; substrate H-Pro-Phe-Arg-AMC at 10, 50 or 100 uM; Ki from Ki app by Equation 2, averaged
T3 construct: heavy chain of 2-chain HMWK, as in m6; light chain of 2-chain HMWK, as in m6; also called pKal·HMWK complex; source: bought proteins (Enzyme Research Laboratories); pKal preincubated with 600 nM (or 4.7 uM) HMWK; copies: + + +
T3 sequence (P03952 20-390, looked up, one chain of several): as the sequence (P03952 20-390, chain 1 of 2) above

[4] = molecular target: T4, Full-length human plasma prekallikrein (Homo sapiens, UniProt P03952); experiment: SPR; BIAcore 3000, 25 °C, HBS-P (10 mM HEPES pH 7.4, 150 mM NaCl, 0.005% P20); DX-2930 captured on goat anti-human Fc IgG on CM5; 500 nM prekallikrein, pKal or pKal-AEBSF injected 5 min at 20 ul/min, 5 min dissociation
T4 construct: human plasma prekallikrein, single-chain zymogen; also called zymogen; source: bought: Enzyme Research Laboratories

[5] = molecular target: T5, pKal from rat plasma (Rattus norvegicus, UniProt P14272); experiment: enzyme inhibition (steady state, tight-binding fit); DX-2930 on purified pKal of mouse, rat, rabbit and cynomolgus monkey; apparent; data not shown
T5 construct: also called rat pKal; source: purified from rat plasma by Athens Research and Technology
T5 sequence (P14272 20-638): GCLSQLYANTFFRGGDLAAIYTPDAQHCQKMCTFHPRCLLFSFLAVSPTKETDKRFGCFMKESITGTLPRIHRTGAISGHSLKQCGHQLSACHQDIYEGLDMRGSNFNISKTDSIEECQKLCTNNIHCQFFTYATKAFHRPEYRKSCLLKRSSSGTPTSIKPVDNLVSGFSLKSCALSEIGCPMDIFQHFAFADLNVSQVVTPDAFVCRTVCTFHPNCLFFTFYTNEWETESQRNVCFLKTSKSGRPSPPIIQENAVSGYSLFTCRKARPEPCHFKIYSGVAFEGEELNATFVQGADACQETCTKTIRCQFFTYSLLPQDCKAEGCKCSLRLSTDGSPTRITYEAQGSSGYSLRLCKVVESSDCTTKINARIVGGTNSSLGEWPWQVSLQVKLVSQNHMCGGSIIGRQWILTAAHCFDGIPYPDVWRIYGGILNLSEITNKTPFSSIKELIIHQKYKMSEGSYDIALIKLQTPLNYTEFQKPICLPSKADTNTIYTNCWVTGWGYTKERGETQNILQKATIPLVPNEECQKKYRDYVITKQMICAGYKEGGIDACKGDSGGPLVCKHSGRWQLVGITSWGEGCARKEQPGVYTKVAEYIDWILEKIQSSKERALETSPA

[6] = molecular target: T6, purified pKal from mouse (Mus musculus, UniProt P26262); experiment: as above
T6 construct: also called mouse pKal
T6 sequence (P26262 20-638): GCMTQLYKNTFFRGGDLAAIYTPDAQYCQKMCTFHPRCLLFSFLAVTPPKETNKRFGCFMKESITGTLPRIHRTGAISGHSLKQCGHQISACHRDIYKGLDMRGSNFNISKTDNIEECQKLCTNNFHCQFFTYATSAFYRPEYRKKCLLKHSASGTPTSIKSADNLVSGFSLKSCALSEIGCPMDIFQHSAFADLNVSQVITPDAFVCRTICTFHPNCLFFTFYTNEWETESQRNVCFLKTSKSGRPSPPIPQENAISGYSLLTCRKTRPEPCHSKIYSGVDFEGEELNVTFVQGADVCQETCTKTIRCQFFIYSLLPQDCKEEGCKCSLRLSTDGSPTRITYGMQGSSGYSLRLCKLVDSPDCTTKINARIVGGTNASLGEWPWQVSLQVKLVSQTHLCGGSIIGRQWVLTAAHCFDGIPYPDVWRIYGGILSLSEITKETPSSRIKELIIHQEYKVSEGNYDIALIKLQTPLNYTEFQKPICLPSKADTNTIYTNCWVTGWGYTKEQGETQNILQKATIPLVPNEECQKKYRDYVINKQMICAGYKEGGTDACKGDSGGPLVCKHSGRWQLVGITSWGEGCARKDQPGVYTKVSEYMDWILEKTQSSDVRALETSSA

[7] = molecular target: T7, pKal from rabbit plasma (Oryctolagus cuniculus, UniProt G1T127); experiment: as above
T7 construct: also called rabbit pKal; source: purified from rabbit plasma by Athens Research and Technology

[8] = molecular target: T5, pKal from rat plasma; experiment: enzyme inhibition (steady state, tight-binding fit); purified Fab fragments on full-length pKal, potency studies like those of Fig. 2A; apparent

T1 sequence (P03952 20-390, chain 1 of 2): as the sequence (P03952 20-390, chain 1 of 2) above
T1 sequence (P03952 391-638, chain 2 of 2): as the sequence (P03952 391-638, chain 2 of 2) above

B1: Fab M0201-H06 (Fab, V domains shown)
VH: EVQLLESGGGLVQPGGSLRLSCAASGFTFSHYIMMWVRQAPGKGLEWVSGIYSSGGITVYADSVKGRFTISRDNSKNTLYLQMNSLRAEDTAVYYCAYRRTGVPRRDAFDIWGQGTMVTVSS
VL: DIQMTQSPSTLSASVGDRVTITCRASQSISSWLAWYQQKPGKAPNLLIYKASTLESGVPSRFSGSGSGTEFTLTISSLQPDDFATYYCQQYNTYWTFGQGTKVEIK
notes: M0162-A04 with I103V alone in HV-CDR3; against the heavy chain of m2 it keeps T101 and A108; as the light chain of m2, germ line optimisation aside; source: E. coli, secreted, purified (protein A-Sepharose)
[1]
  Ki: 0.56 nM

B2: isolate M0199-A08 (Fab, V domains shown)
VH: EVQLLESGGGLVQPGGSLRLSCAASGFTFSHYIMMWVRQAPGKGLEWVSGIYSSGGITVYADSVKGRFTISRDNSKNTLYLQMNSLRAEDTAVYYCAYRRIGVPRRDEFDIWGQGTMVTVSS
VL: DIQMTQSPSTLSASVGDRVTITCRASQSISSWLAWYQQKPGKAPNLLIYKASTLESGVPSRFSGSGSGTEFTLTISSLQPDDFATYYCQQYNTYWTFGQGTKVEIK
notes: M0162-A04 with T101I, I103V and A108E in HV-CDR3; as the heavy chain of m2 before germ line optimisation; as the light chain of m2 before germ line optimisation; also called M0199-A08 variant; source: E. coli, secreted, purified (protein A-Sepharose)
[1]
  Ki: 0.05 nM

B3: 2-chain high molecular weight kininogen (treated with pKal to excise bradykinin) (natural protein, human)
chain 1: QESQSEEIDCNDKDLFKAVDAALKKYNSQNQSNNQFVLYRITEATKTVGSDTFYSFKYEIKEGDCPVQSGKTWQDCEYKDAAKAATGECTATVGKRSSTKFSVATQTCQITPAEGPVVTAQYDCLGCVHPISTQSPDLEPILRHGIQYFNNNTQHSSLFMLNEVKRAQRQVVAGLNFRITYSIVQTNCSKENFLFLTPDCKSLWNGDTGECTDNAYIDIQLRIASFSQNCDIYPGKDFVQPPTKICVGCPRDIPTNSPELEETLTHTITKLNAENNATFYFKIDNVKKARVQVVAGKKYFIDFVARETTCSKESNEELTESCETKKLGQSLDCNAEVYVVPWEKKIYPTVNCQPLGMISLMK
chain 2: SSRIGEIKEETTVSPPHTSMAPAQDEERDSGKEQGHTRRHDWGHEKQRKHNLGHGHKHERDQGHGHQRGHGLGHGHEQQHGLGHGHKFKLDDDLEHQGGHVLDHGHKHKHGHGHGKHKNKGKKNGKHNGWKTEHLASSSEDSTTPSAQTQEKTEGPTPIPSLAKPGVTVTFSDFQDSDLIATMMPPISPAPIQSDDDWIPDIQIDPNGLSFNPISDFPDTTSPKCPGRPWKSVSEINPTTQMKESYYFDLTDGLS
notes: heavy chain of human high molecular weight kininogen after excision of bradykinin; light chain of human high molecular weight kininogen after excision of bradykinin; also called 2-chain HMWK; 2-chain kininogen; source: bought: Enzyme Research Laboratories
[2]
  Kd: 72 nM

B4: DX-2930, fully human IgG1 monoclonal antibody (antibody, V domains shown)
VH: EVQLLESGGGLVQPGGSLRLSCAASGFTFSHYIMMWVRQAPGKGLEWVSGIYSSGGITVYADSVKGRFTISRDNSKNTLYLQMNSLRAEDTAVYYCAYRRIGVPRRDEFDIWGQGTMVTVSS
VL: DIQMTQSPSTLSASVGDRVTITCRASQSISSWLAWYQQKPGKAPKLLIYKASTLESGVPSRFSGSGSGTEFTLTISSLQPDDFATYYCQQYNTYWTFGQGTKVEIK
notes: the Fab portion of the heavy chain is in the deposited structures (as the heavy chain of m2); the rest is the human IgG1 constant region (f-allotype); as the light chain of m2 in the deposited structures; IgG1 (f-allotype); Biotinylated for the ELISA on HUVEC; also called germ line-optimized M0199-A08; copies: 2 + 2
[3]
  Ki: 0.115 ± 0.003 nM
[4]
  binding result: no binding (tested: 500 nM)
[5]
  Ki: 0.17 nM
[6]
  Ki: 0.17 nM
[7]
  Ki: 14.2 nM

B5: Fab M0162-A04 (lead Fab, parent of the affinity maturation) (Fab, V domains shown)
VH: EVQLLESGGGLVQPGGSLRLSCAASGFTFSHYIMMWVRQAPGKGLEWVSGIYSSGGITVYADSVKGRFTISRDNSKNTLYLQMNSLRAEDTAVYYCAYRRTGIPRRDAFDIWGQGTMVTVSS
VL: DIQMTQSPSTLSASVGDRVTITCRASQSISSWLAWYQQKPGKAPNLLIYKASTLESGVPSRFSGSGSGTEFTLTISSLQPDDFATYYCQQYNTYWTFGQGTKVEIK
notes: as the heavy chain of m2 but with the parental HV-CDR3 residues T101, I103, A108; as the light chain of m2, germ line optimisation aside; source: E. coli, secreted, purified (protein A-Sepharose)
[8]
  Ki: ~5 nM
[1]
  Ki: ~5 nM

Source: article PMC4156074, “Inhibition of Plasma Kallikrein by a Highly Specific Active Site Blocking Antibody” (The Journal of Biological Chemistry, 2014)
